Results on 41 sequences are retold here after the nanobody polyreactivity screen of Harvey et al. (2022).

The series in a line: yeast display, Sf9 membrane polyspecificity reagent, FACS + sequencing; frameworks hold sequencing errors. Summed up: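 Genes from sorted yeast were amplified by colony PCR, read by MiSeq 2 × 250 sequencing and filtered on CDR length. These cells carried a synthetic nanobody library in Saccharomyces cerevisiae BJ5465 and were sorted by FACS into low and high (top ~1%) gates on anti-HA and streptavidin fluorescence. Polyreactivity is labelled according to the gate of origin.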
For “QVQLVESGGGLVQAGGSLRLSCAASVRIFQRNVMGWYRQAPGKEWELVATINWSGASTYYADSVKGRFTISRDNAKNTVYLQMNSLTPEDTAVYYCAKDGHYPLVYLAFDYWGQGTQVTVSS”, the “polyreactivity (PSR sort gate)” value is “low polyreactivity”. Consider “QVQLVESGGGLVQAGGSLRLSCAASVRIFYGYTMGWYRQAPGKERELVASIDYSTGRTYYADSVKGRFTISRDNAKNTVYLLMNSLKPEDTAVYYCNADPNYSFLRYDYWGQGTQVTVSS”, for which the “polyreactivity (PSR sort gate)” value is reported as “high polyreactivity”. Under “QVQLVESGGGLVQAGGSLRLSCAASVRNYGINVMVWYRQAPGKERELVAAISYRTGSTYYADSVKGRFTISRDNAKNTVYLQMNSLKPEDTAVYYCDALRSIRTAWYDYWGQGTQVTVSS” stands “high polyreactivity”. Under “QVQLVESGGGLVQAGGSLRLSCAASVRTFSAYAMGCSRQAPGKERELVARITSVDSTNYSDSVNGRFTFSRDNAKNNVYLQMNSLKPEDTAVYSCNATFGYPFVDYDDYWGQGTQVTVSS” stands “low polyreactivity”; under “QVQLVESGGGLVQAGGSLRLSCAASVRTYGFNTMGSYRQAPGKERELVAANTTSGGSTYYADSVKGRFTISRDNAKNTVYLQMNSLKPDDSAVYYCAKDYYSKHFPIYEYWGQGTQVTVSS”, “low polyreactivity”. Under “QVQLVESGGGLVQAGGSLRLSCAASVSIFEWYAMGRYRQAHGKERELVAAINSGGSTYYADSVKGRFTISRDNAKNTVYLQMNSLKPEDTAVYYCAAGTQAHAYVVRPIEMDYWGQGTQVTVSS” stands “low polyreactivity”; under “QVQLVESGGGLVQAGGSLRLSCAASVSIFVRNAMGWYRPAPGKERELGAADSVKGRFTISRDNAKNTVYLQMNSLKPEDTAVYYCAADEWIVHDGYYSSYYYWGQGTQVTVSS”, “low polyreactivity”; under “QVQLVESGGGLVQAGGSLRLSCAASVSIMARNAMVWYRQAPGKERELVAAISNSGSTNYADSVKGRFTISRDNAKNTVYLQMNSLKPEDTAVYYCAKDADHGWFEYDYWGQGTQVTVSS”, “low polyreactivity”. For “QVQLVESGGGLVQAGGSLRLSCAASVSNIKYNAMGWYRQAPGKERELVAAISSSGGTTYYADSVKGRFTISRDNAKNTVYLQMNSLKPEDTAVYYCNKYFRAGNGYGEEDYWGQGTQVTVSS”, the “polyreactivity (PSR sort gate)” value was “high polyreactivity”.

With “QVQLVESGGGLVQAGGSLRLSCAASVSTFDDNAMGWYIQAPGKERELVASITYRGGSTYYADSVKGRFTISRDNAKNTVYLQMNSLKPEDTAVYYCNADYTGAEYDYWGQGTQVTVSS”, the “polyreactivity (PSR sort gate)” value is “low polyreactivity”. Under “QVQLVESGGGLVQAGGSLRLSCAASVSTFKPYAMGWYRQAPGKERELVSAISGSGGSTYYADSVKGRFTISRDNAKNTVYLQMNSLKPEDTAVYYCAARFYVSYYYFGYEYWGQGTQVTVSS” stands “high polyreactivity”; under “QVQLVESGGGLVQAGGSLRLSCAASVSTFPGYAMGWYRQAPGKERELVAAISTSGGRTYYADSVKGRFTISRDNAKNTVYLQMNSLKPEDTAVYYCAARDTRSPYSGTQVEYWGQGTQVTVSS”, “low polyreactivity”. Under “QVQLVESGGGLVQAGGSLRLSCAASVSTFYSYVMGWSRQAPGKETELVAAITYSGGRTYYADSVKGRFTISRDNAKNTVYLQMNSLKPEDTAVYYCAKRVFNYQRYDYWGQGTQVTVSS” stands “high polyreactivity”; under “QVQLVESGGGLVQAGGSLRLSCAASVYIFQSNVMGWYRQAPGKESELLAAITVSGGSTYYADSVKGRFTISRDNGKNTVYLQMKSLKPEDTAVYYCNKVGVKFRVDGWYDYWGQATQVTVSS”, “high polyreactivity”; under “QVQLVESGGGLVQAGGSLRLSCAATGFIFDSYAMGWYRQAPGKERELVAAISWSGGRTYYADSVKGRFTISRDNAKNTVYLQMNSLKPEDTAVYYCNVRTKLSTSYDYWGQGTQVTVSS”, “high polyreactivity”. Under “QVQLVESGGGLVQAGGSLRLSCAATGFIFPINAMGWYRQAPGKERELVAAITGGGSTSYADSVKGRFTISRDNAKNTVYLQMNSLKPEDTAVYYCATDRLTYTKYGYWGQGTQVTVSS” stands “low polyreactivity”.

For “QVQLVESGGGLVQAGGSLRLSCAATGFIFSYYAMGWYRQAPGKERELVATITSGGSTYYADSVKGRFTISRDNAKNTVYLQMNSLKPEDTAVYYCNADWYWRVYWGQGTQVTVSS”, the “polyreactivity (PSR sort gate)” value is given as “high polyreactivity”. Then “QVQLVESGGGLVQAGGSLRLSCAATGFIFYEYPMGWYRQAPGKERELVASINSDGRTDYADSVKGRFTISRDNAKNTVYLQMNSLKPEDTAVYYCAAALGYYGRHPYDYWGQGTQVTVSS”, with “low polyreactivity”; and “QVQLVESGGGLVQAGGSLRLSCAATGFTFYTYAMGWYRQATGKETELVADISSGGSTNYADSVKGRFRISRDNAKNTVYLQMNSLIPEDTAVYYCSDDYYFLDWYDYWGQGTQVTVSS”, with “low polyreactivity”. Then “QVQLVESGGGLVQAGGSLRLSCAATGGTFNVYAMGWYRQAPGKESELVAAIRWSGGSTYYADSVKGRFTISRDNAKNTVYLQMNSLKPEDTAVYYCAARFYGRSQTYGSWGLGTQVTVSS”, with “high polyreactivity”; and “QVQLVESGGGLVQAGGSLRLSCAATGGTFYVYAMGWYRQAPGKERELVARITWRGGRTYYADSVKGRFTISRDNAKNTVYLQMYSLKPEDTAVYYCNAEQYSQFDYWGQGTQVTVSS”, with “high polyreactivity”; and “QVQLVESGGGLVQAGGSLRLSCAATGIIFDSYTMGWYRQAPGKERELVAAISVSGGSTYYADSVKVRFTISRDNAKNTVYLQMNSLKPEDTAVYYCAARGYAFNYMWPFNYWGQGTQVTVSS”, with “low polyreactivity”. Then “QVQLVESGGGLVQAGGSLRLSCAATGIIFKRYTMGWYRQAPGKERELVATINSGTRTYADSVKGRFTISRDNAKNTVYLQMNSLKPEDTAVYYCARRGYYYDYWGLGTQVTVSS”, with “high polyreactivity”; and “QVQLVESGGGLVQAGGSLRLSCAATGITFEYNAMGWYRQAPGKERELVAAISLSSGSTYYADSVKGRFTISRDNAKNTVYLQMNSLKPEDTAVYYCNADTIIYEGGYWGQGTQVTVSS”, with “low polyreactivity”; and “QVQLVESGGGLVQAGGSLRLSCAATGLIFRSYAMGWYRQAPGKDRELVARISIRGGSTYYADSVKGRFTISRDNAKNTGSLQMNSLKPEDTAVYYCAAVGSFRGYRYDYWGQGTQVTVSS”, with “high polyreactivity”. For “QVQLVESGGGLVQAGGSLRLSCAATGLIFSLYAMGWYRQAPGKERELVAAISASDGSTYYADSVKGRFTISRDNAKNTVYLQMNSLKPEDTAVYYCAADSRPTQEYDYWGQGTQVTVSS”, the “polyreactivity (PSR sort gate)” value is recorded as “low polyreactivity”. Under “QVQLVESGGGLVQAGGSLRLSCAATGLIIRYYAMGWYRQAPGKEREFVAAITWNGGSTYADSVKGRFTISRDNAKNTVYLQMNSLKPEDTAVYYSAADLSYWDDFDYWGQGTQVTVSS” stands “low polyreactivity”; under “QVQLVESGGGLVQAGGSLRLSCAATGLIIYRNAMGWYRQAPGKEREFVAAISYSGGSTSYADSVKGRLTISRDNAKNTVYLQMNSLKPEDTAVYYCAVDQSRGWFYLYYYWGQGTQVTVSS”, “low polyreactivity”. Then “QVQLVESGGGLVQAGGSLRLSCAATGMIYERNAMGWYRQAPGKERELVAAITRSGSRTYYADSVKGRFTISRDNAKNTVYLQMNSLKPEDTAVYYCAKRSGYRAHYGYWGQGTQVTVSS”, with “high polyreactivity”.

In the case of “QVQLVESGGGLVQAGGSLRLSCAATGNIFTPYTMGWYRQAPGKERELVASINNAGTTKYADSVKGRFTISRDNAKTTVYLQMNSLKPEDTAVYYCAAQRRHALSSYPKHYYWGQGTQVTVSS”, the “polyreactivity (PSR sort gate)” value is listed as “low polyreactivity”. Under “QVQLVESGGGLVQAGGSLRLSCAATGRIFHRYAMGWYRQAPGKEREFVAAITYSTGTTYYADSVKGRFTISRDNAKNTVYLQMNSLKPEDTAVYYCAKVSRFWHKSWFAYGYDYWGQGTQVTVSS” stands “low polyreactivity”; under “QVQLVESGGGLVQAGGSLRLSCAATGRIFHSNAMGWYRQAPGKERELVAVITKNGGSTYYADSVKGRFTISRDNAKNTVYLQMNSLKPEDTAVYYCNKRAQYTYYGRDYWGQGTQVTVSS”, “high polyreactivity”. Then “QVQLVESGGGLVQAGGSLRLSCAATGRIFNPNAMGWYRQAPGKERELVAAITSGDSTNYADSVKGRFTISRDNAKNTVYLQMNSLKPEDTAVYYCAAGPSYRPPWLRQGGYDYWGQGTQVTVSS”, with “low polyreactivity”; and “QVQLVESGGGLVQAGGSLRLSCAATGRIFTYMGWYRQAPGKERELVAGISWRGTSTYYADSVKGRFTISRDNAKNTVYLQMNSLKPEDTAVYYCAARWAYHVRGDYWGQGTQVTVSS”, with “low polyreactivity”; and “QVQLVESGGGLVQAGGSLRLSCAATGRIVRGNAMGWYRQAPGKERELVAAISTRGGRTYYADSVKGRFTISRDNAKNTVYLQMTSLKPQDTAVYYCNKGDSASSLDYWGQGTQVTVSS”, with “high polyreactivity”. Under “QVQLVESGGGLVQAGGSLRLSCAATGRNFRYNAIGWYRQATGKERELVATISRGGGSTYYADSVKGRFTISRDNAQNTVYLQMNSLKPEDTAVYYCATRYYQDIVGYSRYDYWGQGTQVTVSS” stands “high polyreactivity”. Turning to “QVQLVESGGGLVQAGGSLRLSCAATGRTFAVYAMGWYRQAPGKERELVAAISSGGSTYYADSVKGRFTIARDNAKNTVYLQMNSLKPEDTAVYYCTARWGYRRGYWGQGTQVTVSS”, the “polyreactivity (PSR sort gate)” value is on record as “high polyreactivity”. Then “QVQLVESGGGLVQAGGSLRLSCAATGRTFGVNAMAWYRQAPGKESELVASIRWNGGSTYYADSVKGRFTISRDNAKNTVYLQMNSLKPEDTAVYYCNAVRRYRSREFDYWGQGSQVTVSS”, with “low polyreactivity”; and “QVQLVESGGGLVQAGGSLRLSCAATGRTFINYAMGWYRQAPGKERALVAAITTGGRTNYADSVKGRFTISRDNAKNTVYLQMNSLKPEDTAVFYCAADRYYWGRYTLNYWGQGTQVTVSS”, with “low polyreactivity”; and “QVQLVESGGGLVQAGGSLRLSCAATGRTFSTNAMGGSRQAPGKERELVAAITSSGGRTYYADSVKGRFTISRDNAKNTVYLQMNSLKPEDTAVYYCAAYPWYYRGYWFGYWGQGTQVTVSS”, with “high polyreactivity”.

Regarding “QVQLVESGGGLVQAGGSLRLSCAATGRTLKYNAMGRYRKAPGKERELVAAISYSGSSTYYADSVKGRFTISRDNAKNTVYLQMHSLKPEDTAVYYCNTARPTAAYDYWGQGTQVTVSS”, the “polyreactivity (PSR sort gate)” value was “low polyreactivity”.
